Sequences and labels used below:
B1: C4H4CL Azospirillum sp.: Cinnamate 4 hydroxylase 4 coumarate coenzyme ligase fusion (C4H4CL), Azospirillum sp. (protein)
chain: MDLLLLEKTLLALFIAATIAITISKLRGKRFKLPPGPIPVPVFGNWLQVGDDLNHRNLTDLAKRFGDIFLLRMGQRNLVVVSSPELAKEVLHTQGVEFGSRTRNVVFDIFTGKGQDMVFTVYGTLAEMRRIMTVPFFTNKVVQQYRFGWEFEAQSVVDDVKKNPEACSSGIVLRRRLQLMMYNIMYRIMFDRRFESEEDPLFVKLKALNGERSRLAQSFEYNYGDFIPILRPFLKGYLKLCKEVKDRRLQLFKDYFVDERKKLGSTKSTTNEGLKCAIDHILDAQQKGEINDDNVLYIVENINVAAIETTLWSIEWGIAELVNHQKIQNKVREEIDRVLGPGHQVTEPDLQKLPYLQAVIKETLRLRMAIPLLVPHMNLHDAKLSGFDIPAESKILVNAWWLANNPAQWKKPEEFRPERFLEEESHVEANGNDFRYLPFGVGRRSCPGIILALPILGITLGRLVQNFELLPPPGQSKIDTAEKGGQFSLHILKHSTIVCKPRSFNGGGGSGGGGSGGGGSMTIQRWWRNRESLNRVLCDLLAGEFARLRPGGSPPAHPHRWPETLPLGPDGVGADSLDLLQLAAALNEALHLHRSGIEDYLLMHRTVGDWLDVCEAALGRFDGALSFRTSGSTGEGKRCEHPLAALEEEADALAALLSGGAEAPRRVVSVVPAHHIYGFLFTVLLPDRLAVPVVDGRGTSPGGLAARLGPGDLVVAHPDWWGALLRSGAALPDGVTGTSSTAPCPPDTARGVRGVGLARLVEVFGSSETAGLGWRESPDAPFRPFPWWRFGDDGRVTRRLADGTVLSATLQDRLSHDEEGFRPSGRLDTVVQVGGVNVSLAGVQAHLAGHPDVEAAAVRLMRPEEGTRLKAFIVPARTAPPREELYRRLTDWIEATLPAPHRPRALAFGPALPVNGMGKPCDWPLATCR
modifications: Depicts the nucleic acid sequence of Cinnamte 4 hydroxylase 4 coumarate coenzyme ligase fusion (C4H4CL) of Azospirillum sp.
B2: CYP82D Panax ginseng: CYP82D from Panax ginseng (protein)
chain: METFLAQLYSTTTIAALFVLLVLYYFSPWTRINKKNVAPEAGGGWPIIGHLHLLGGSKLPHLVFGSMADKYGPIFTVRLGVQRSLVVSSWEMVKDIFTTNDVIVSGRPKFLAAKHLSYNYAMFGFSPYGSFWLELRKITSLQLLSNRRLELLKHVRVSEMEISMRQLYKLWSEKKNGSGRVLMDMKKWFGELNLNVTFRMVAGKRYFGGGAASNDEEARRCRRVVREFFRLLGVVVVADSLPFLRWLDLGGYERAMKETAREMDSIVSVWLEEHRIKSDSSGDDANMEQDFMDVMLSAVKNVDLCGFDAHTVIKATCMVIISSGTDTTTVELTWALCLLLNNRHVLKKAQEELDNVVGKQRRVKESDLNNLIYLQAIVKETLRLYPAGQLGGQREFSDDCTVGGYHVPKRTRLVVNLWKLHRDPRIWSDPTEFRPERFLERHKEIDVKGQHFELIPFGAGRRVCPGITFGLQMFHLVLASLLHGFDISTPSDAPVDMAEGAGLTNAKITPLEILIAPRLSPSLYE
modifications: Panax ginseng
B3: HCTC3H Coffea canephora: hydroxycinnamoyl-CoA:quinate hydroxycinnamoyltransferase p-coumaroyl quinate 3′-hydroxylase fusion (HCTC3H), Coffea canephora (protein, listed as Coffea canephora)
chain: MKIEVKESTMVRPAQETPGRNLWNSNVDLVVPNFHTPSVYFYRPTGSSNFFDAKVLKDALSRALVPFYPMAGRLKRDEDGRIEIECNGEGVLFVEAESDGVVDDFGDFAPTLELRRLIPAVDYSQGISSYALLVLQVTYFKCGGVSLGVGMRHHAADGFSGLHFINSWSDMARGLDVTLPPFIDRTLLRARDPPQPQFQHIEYQPPPALKVSPQTAKSDSVPETAVSIFKLTREQISALKAKSKEDGNTISYSSYEMLAGHVWRCACKARGLEVDQGTKLYIATDGRARLRPSLPPGYFGNVIFTATPIAIAGDLEFKPVWYAASKIHDALARMDNDYLRSALDYLELQPDLKALVRGAHTFKCPNLGITSWVRLPIHDADFGWGRPIFMGPGGIAYEGLSFILPSPTNDGSMSVAISLQGEHMKLFQSFLYDIGGGGSGGGGSGGGGSMALLLILLPVAFIFLAYSLYERLRFKLPPGPRPKPVVGNIYDIKPVRFKCYAEWSKLYGPIFSVYFGSQLNTVVNTAELAKEVLKDNDQQLADRYRSRPSARMSRNGQDLIWADYGPHYVKVRKLCNLELFTPKRLEGLRPLREDEVTAMVDSIFKDCTKPENKGKSLLMRNYLGSVAFNNITRLTFGKRFMNSEGVVDEQGQEFKGIVSNGIRIGAKLSVADHIPWLRWMFVGENEDLDKHNARRDKLTRMIMEEHTLARQKSGNTKQHFVDALLTLQKQYELSDDTVIGLLWDMITAGMDTTTISVEWAMAELVKNPRVQQKAQEELDRVIGSDRIMTEADFAKLPYLQCVAKEALRLHPPTPLMLPHRANANVKIGGYDIPKGSIVHVNVWAIARDPAAWKNPLEFRPERFLEEDVDIKGHDYRLLPFGAGRRICPGAQLALNLVTSMLGHLLHHFTWSPPPGVRPEEIDLEESPGTVTYMRTPLQAVATPRLPAHLYNRVPVE
B4: UGT Cicer arietinum: Glycosyltransferase (UGT) from Cicer arietinum (protein, listed as Cicer arietinum)
chain: MKKIEVVFIPSPGVGHLISTLEFANLLINRNNRLNITVLVINFPKTVEKQTNYSLTESENLHVINLPQTTTHVPSTSDVGNSISALVETQKSNVKQAVSNLTGTLAAFVVDMFCTTMIDVANELGVPSLVFFTSGVAFLGLMLHLHTIWEQQDTELLLQQDELDIPSFANPVATNTLPTLVLRKEWESSFIKYGNGLKKASGIIVNSFHELEPHAVRSFLEDPTLRDLPIYPVGPILNPKSNVDSDDVIKWLDDQPPSSVVFLCFGSMGTFDEEQVREIALAIERSGVRFLWSLRKPQPQGTMVPPSDYTLSQMLEVLPEGFLDRTANIGRVIGWAPQVQVLAHQATGGFVSHCGWNSTLESIYYGVPIATWPLFAEQQTNAFELVRELKIAVEIALDYRLEFDIGRNYLLDADKIERGIRGVLDKDGEVRKKVKEMSQKSRNVLLEGGSSYTYLGQLIDYITNQV
B5: PAL Ganoderma sinense: Phenylalanine ammonia-lyase (PAL) from Ganoderma sinense (protein)
chain: MPGYTLTKTQSTSTFEPSPVTLKKAAVSSPLHAEPELPKQSSAPTLLHKFVEAHRALNNYKQGQPIVVDGQTLSIPAVAAVARYNADVVLDDSSDIQTRVLKSRQVIVDKVSSQKSVYGVSTGFGGSADTRTSDPLTLGLALFQHQHCGVLPSDTDSVPVALPLLDPLTSTSMPESWVRGAILIRMNSLIRGHSGVRWELIERMSALLRENIVPLVPLRGSISASGDLSPLSYIAGLLIGNPSIRVFDGPSTFRGRRIVSSREALSAHHIEPISLGSKEHLGILNGTAFSASVGALAVHEAVHLSLLGQVCTAMCTEAMLGAKGSFAPFIHSVARPHPGQVEVAETVTDLLEGSHFAVTAEEEKHISADIGELRQDRYPLRTSAQFLGPQVEDVLSAFAAITIECNSTTDNPLIDGETGEVHHGGNFQAMSVTNAMEKTRLAMHHIGKLLFAQCTELLNPSMNRGLPPNLAATDPSHNYFAKGVDIHAAAYVGELGYLANPVSTHVQSAEMHNQAVNSLALISARATLNSLEVLSILTSSFLYVLCQALDLRAMQHEFELEVDGILRQQLALSFGRHLSAADLDALFSVLSRHVRRSLETTSTMDAALRMRTVAAATTTPFVDFCAKRNTSLDLDEIVAFRAGLSEGMVGSLVRLREEYLRGSKGPAPAAKYLGRSRAVYEFVRVTLGIRMHGSENLHDFKEGPGVEDPTIGQDIALIHEAIRDGKMQDVVVGIFA
modifications: Ganoderma sinense

The results in this text go back to patent US11898183B2, “Programmed microorganisms to attenuate a disease” (priority 2020, dated 2024).

This series concerns pathway specific substrates. In words: Enzyme functionality of pathway enzyme homologs and fusion constructs in lysed E. coli cell extracts, product by HPLC. The series is classed as biochemical, E. coli BL21. The settings on record: protein expressed in E. coli, lysed cell extract, pathway specific substrate, HPLC. Here is the method:
As per one of the possible implementations of the present disclosure, two proteins—cinnamate-4-hydroxylate (C4H) and 4-coumaroyl CoA-ligase (4CL) were expressed as one fusion protein. Also, other two proteins which were expressed as one fusion protein were hydroxycinnamoyl-CoA quinate hydroxycinnamoyltransferase (HCT) and p-coumaroyl quinate 3′-hydroxylase (HCTC3H). The fusion gene and the corresponding fusion protein was prepared using the following method. […] The enzyme fusion constructs were made for the selected genes (Table 5). Pathway genes and the fusion constructs were individually cloned in E. coli expression vector pET28+ under T7 promoter and transformed in E. coli BL21 cells. Recombinant bacterial cells were induced with IPTG and enzyme functionality was tested with pathway specific substrates (Table 5) using lysed E. coli cell extracts. HPLC analysis was carried out to quantify the product formation and in turn shortlisting of efficient enzymes for functional pathway assembly towards Etoposide in E. coli.
The E. coli transformants were grown overnight at 37° C. in 1 ml of M9 minimal media containing ampicillin (100 mg/1), in 96-well format. The next day, 150 μl of each culture was inoculated into 3 ml M9 minimal media containing ampicillin (100 mg/1), IPTG 0.1 mM in 24-well format, and incubated at 30° C. and 200 rpm for ˜20 hours. The following day, cells were spun down and pellets were resuspended in 100 μl of lysis buffer containing 10 mM Tris-HCl pH 8, 5 mM MgCl2, 1 mM CaCl2) and complete mini protease inhibitor EDTA-free (3 tablets/100 ml) (Hoffmann-La Roche, Basel, Switzerland) and frozen at −80° C. for at least 15 minutes to promote cell lysis. Pellets were thawed at room temperature and 50 μl of DNase mix (1 μl of 1.4 mg/ml DNase in H2O (˜80000 u/ml), 1.2 μl of MgCl2 500 mM and 47.8 μl of 4×PBS buffer solution) was added to each well. Plates were shaken at 500 rpm for 5 min at room temperature to allow degradation of genomic DNA. Plates were spun down at 4000 rpm for 30 min at 4° C. and six μl of the lysates were used in in vitro using appropriate substrates for enzymes as per Table 6. In each case, the resulting compounds were measured by HPLC. Results were analysed in comparison with the lysates expressing the corresponding controls (the empty plasmid). […]
For B1, the enzyme activity is recorded as 97%. As for B2, the enzyme activity result is reported as “around 93%”. B3 came in with an enzyme activity of 89%.

B4 had an enzyme activity of 97%. Molecule B5 had an enzyme activity of 98%.
